± gives the half width of the 95% confidence interval.
assay: folding stability dG unfold from chymotrypsin proteolysis; higher = more stable
In short: (§1)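 Designed mini-proteins (under 80 residues, no cysteine) in a PA-tagged cDNA display construct were digested with trypsin and chymotrypsin. Each protease was used at 11 concentrations (threefold dilutions) plus a no-protease condition, followed by sequencing. K50 was inferred by Bayesian fitting of sequencing counts, and unfolding free energy was derived against a sequence-predicted unfolded-state K50 and a shared folded-state K50, per protease or combined. Only designs with AlphaFold2 dimer inter-PAE above 15 were kept.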

Row | Sequence | folding stability dG unfold
1 | SAGGSAGGKVKFEIPNAKITSVEYDPNPGLLKVEFELPNGLKLTAIFKIDKDKAILAKIEISPESAGGSAGG [r6_718_TrMRF] | 3.51 ± 0.045 kcal/mol
2 | SAGGSAGGSGSMTTTTDPNSDITVSSIGSPSGPPVTATLNPKTGTVTVTVGGTPVTIPLDALSSAGGSAGGS [r12_650_JUSTAS] | 1.32 ± 0.034 kcal/mol
3 | SAGGSAGGSAGGPEVTITLPPPEKVKVEIVEIEVEGGKVRIRVRNENGEELTFTVPLEDLSAGGSAGGSAGG [r7_829_TrROS_Hall] | 1.59 ± 0.35 kcal/mol
4 | SAGGSAGGSMWIVRIEYENPDNGKTYTIPIFVPPEDAEEIAKEIAEQLPGIKDIKVEIYPLNDSAGGSAGGS [r12_757_TrROS] | 2.22 ± 0.079 kcal/mol
5 | SAGGMPVTVTIVVPPGTERELAEELAEKYAKEGADVEFEERPGGLVLTMTLPGGEVVTMEIRDPAQASAGGS [r16_406_JUSTAS] | 2.382 ± 0.023 kcal/mol
6 | SAGGSAGGSDYKIEIEVEPMDPEDGYYQVELEIYDPNNGEPKEKIPVHMDSPEDAKDAIKELISAGGSAGGS [r12_26_TrROS] | 0.362 ± 0.024 kcal/mol
7 | DDWVTLPVEIWIPVRNPDGKPLTPEQVKETANSIRNELARNHGIDVEVDVKVEPVGPNGYYRINATVTIRPS [r1_231_TrROS] | 2.98 ± 0.055 kcal/mol
8 | SAGGKVTVENDTLTIPFPDGFTVEITLPPNDKTAVITLHTPPNNPLALAAAKAIADSLPDYKVEVRDESAGG [r13_34_TrMRF] | 0.649 ± 0.06 kcal/mol
9 | SAGGMTITVRVKAENPEEAIKKVEETVRSLGYRVVELKEVEVRYDEATGEVFVEATVEVEPLPEEEGSAGGS [r16_155_TrMRF] | 4.81 ± 0.12 kcal/mol
10 | SAGSKEALLSDPSFEPVEVEIHLEIEVPGVTPEEAEAIAKELEKEITEELKKKGIKNVKVTVTIRYVERSAG [r5_431_JUSTAS] | 2.49 ± 0.057 kcal/mol
11 | SAGGMTVTVKVKPDEYVIVEIENPVLDSTLTYVVPFNSPMTVTLPLPPDYKVKKITVVSPKKVSKELLSAGG [r13_119_JUSTAS] | 2.05 ± 0.059 kcal/mol
12 | SAGSPSIVRTPSLTYDPDPRNPSTPRLRQASVTATNPNGETITFTFTSLEDMDAALNAWIAANPELLSSAGG [r19_123_JUSTAS] | 1.74 ± 0.089 kcal/mol
13 | SAENGKWVEVELPIEIWMGNDQLDNFIEEARDIARKHGFEITDIPIKYEPSPDGYRRATIPVKITVPLPSAG [r14_109_TrROS] | 1.06 ± 0.088 kcal/mol
14 | SAGGSAGGSMVYKVTVYIPESGETREFVDPGSEEEIKARVKELFPDPNVKVEITPIEASPELLSAGGSAGGS [r12_92_JUSTAS] | 1.51 ± 0.051 kcal/mol
15 | SAGGSAGGSAGGKKKKVKKKVTITIKLSAEEVAKLLKDLYPEKNIKIEENEDGSLSVTFTSAGGSAGGSAGG [r7_670_TrROS_Hall] | 2.39 ± 0.041 kcal/mol
16 | SAGGSAGGSAGGKKPITLTVLVTDPDGYLLQRTTTLTLDEDTNELTATTTVTRIPLEDLSAGGSAGGSAGGS [r10_1225_TrROS_Hall] | 1.97 ± 0.088 kcal/mol

assay: folding stability dG unfold from trypsin proteolysis; higher = more stable
In short: as §1

Row | Sequence | folding stability dG unfold
17 | SAGKVKIEVEEVPPNVKKVKVESLEELLEAAKKLPPGAVVEVELEDGSKVTVVLNKDGKVVEVKKEPVPSAG [r5_506_TrROS_Hall] | 2.61 ± 0.35 kcal/mol
18 | SAGGSAGGSDKVVEFTFKIPSKDITAEDIAKAVKEAFPGVKKIEVTLYPGEGTAKVKVYLEPSSAGGSAGGS [r20_31_TrMRF] | 3.52 ± 0.16 kcal/mol
19 | STRTLTVVVEAPTLEEALAAAKALAPPGWKVTVTVERREVVDPETGETRTVLVVTVTIEPAPPPPPAEEKSA [r9_962_TrROS_Hall] | 2.11 ± 0.028 kcal/mol
20 | SAGGSAGGSAGSMLTTTLPNGTPVTREFDIQDVEPKGDVIKVVITNPTGGEVPASTVIGPVNSAGGSAGGSA [r18_163_JUSTAS] | 0.412 ± 0.051 kcal/mol
21 | SAGGSAKPKIKINIFYPKDGQWYVMIQDPGGEEVMGPWDDIDKIIEAGIPADDVEIEWMPMPPGQFSAGGSA [r15_955_TrROS] | 1.03 ± 0.014 kcal/mol
22 | SAGGSASIKVTYRFPPDTTVEQAIEDLIAYLEAQTNVKISIPSYTVEREGDYLLVTADILIEPLPESAGGSA [r15_105_TrMRF] | 4.18 ± 0.086 kcal/mol
23 | SAGGGPAAEVARLLREAGYDVEVEVEVFSREENPPLLPGEPLVVRVRVYATPPTGPRRPLGEFVVPVGSAGG [r13_874_TrMRF] | 1.47 ± 0.035 kcal/mol
24 | SMTVSNPRGKTVTVTVTVTVDPNKKSVTVPVTIRTAGEELTFTFTVPKGVNKPVTFSLTVPLPPGSSVISSA [r9_973_JUSTAS] | 3 ± 0.093 kcal/mol
25 | SPNFRISPEIKNAIKRALKENEPGKKVEIRMRYPDGPTIMISIDKPGSINIEVEPDPGKPIMEFEFDIKDSA [r9_132_TrROS] | 0.732 ± 0.079 kcal/mol
26 | SAGGSAGGSAGGKILVITAKIEDIPEIIEAAKKLGIDSVIIDIPETKEKIIITKDSVKLISAGGSAGGSAGG [r7_564_TrMRF] | 1.54 ± 0.057 kcal/mol
27 | SAGGSAGGSAGGSGLSFEIVEEREELLPDGRPRRRIFATLPGGRRLVIDDDGRITIDPDSAGGSAGGSAGGS [r4_111_TrMRF] | 0.45 ± 0.33 kcal/mol
28 | SAPIVIPAKAGSPENVLKAIKEAKELASKGKKVYLPILTKDGPIFFEVDPKTKTIKIYNPKTGEKKDLSSAG [r14_423_TrMRF] | 1.45 ± 0.032 kcal/mol
29 | SAGLRVVAVARTPDGSLVVVYELPDRLVVLRYTPTAITSVAVFPVPPVPPPPAVPRYYDPVTGRWVDGSAGG [r19_254_TrMRF] | 1.71 ± 0.029 kcal/mol
30 | SAGGSAGGSASMDTVVEVGPEILSTGLPIEKVTYDPNTGKTYIETPDKLYVIDSDGNITVDASAGGSAGGSA [r18_445_JUSTAS] | 1.72 ± 0.057 kcal/mol
31 | SAGGSAPKTVTFTTPKGYPITVTPGDRTVTLTHPDRPLATFDVPPDVPTFTITLPDGDTATITVDDSAGGSA [r2_385_TrMRF] | -0.581 ± 0.088 kcal/mol
32 | SAGGSAGGKVKFEIPNAKITSVEYDPNPGLLKVEFELPNGLKLTAIFKIDKDKAILAKIEISPESAGGSAGG [r6_718_TrMRF] | 2.57 ± 0.071 kcal/mol

Row | Sequence | folding stability dG unfold
33 | SAGGSAGGSGSMTTTTDPNSDITVSSIGSPSGPPVTATLNPKTGTVTVTVGGTPVTIPLDALSSAGGSAGGS [r12_650_JUSTAS] | 0.331 ± 0.059 kcal/mol
34 | SAGGSAGGSAGGPEVTITLPPPEKVKVEIVEIEVEGGKVRIRVRNENGEELTFTVPLEDLSAGGSAGGSAGG [r7_829_TrROS_Hall] | 0.667 ± 0.18 kcal/mol
35 | SAGGSAGGSMWIVRIEYENPDNGKTYTIPIFVPPEDAEEIAKEIAEQLPGIKDIKVEIYPLNDSAGGSAGGS [r12_757_TrROS] | 1.52 ± 0.064 kcal/mol
36 | SAGGMPVTVTIVVPPGTERELAEELAEKYAKEGADVEFEERPGGLVLTMTLPGGEVVTMEIRDPAQASAGGS [r16_406_JUSTAS] | 2.3 ± 0.056 kcal/mol
37 | SAGGSAGGSDYKIEIEVEPMDPEDGYYQVELEIYDPNNGEPKEKIPVHMDSPEDAKDAIKELISAGGSAGGS [r12_26_TrROS] | 0.499 ± 0.09 kcal/mol
38 | DDWVTLPVEIWIPVRNPDGKPLTPEQVKETANSIRNELARNHGIDVEVDVKVEPVGPNGYYRINATVTIRPS [r1_231_TrROS] | 2.23 ± 0.1 kcal/mol
39 | SAGGKVTVENDTLTIPFPDGFTVEITLPPNDKTAVITLHTPPNNPLALAAAKAIADSLPDYKVEVRDESAGG [r13_34_TrMRF] | 0.662 ± 0.035 kcal/mol
40 | SAGGMTITVRVKAENPEEAIKKVEETVRSLGYRVVELKEVEVRYDEATGEVFVEATVEVEPLPEEEGSAGGS [r16_155_TrMRF] | 4.37 ± 0.13 kcal/mol
41 | SAGSKEALLSDPSFEPVEVEIHLEIEVPGVTPEEAEAIAKELEKEITEELKKKGIKNVKVTVTIRYVERSAG [r5_431_JUSTAS] | 1.71 ± 0.044 kcal/mol
42 | SAGGMTVTVKVKPDEYVIVEIENPVLDSTLTYVVPFNSPMTVTLPLPPDYKVKKITVVSPKKVSKELLSAGG [r13_119_JUSTAS] | 1.22 ± 0.013 kcal/mol
43 | SAGSPSIVRTPSLTYDPDPRNPSTPRLRQASVTATNPNGETITFTFTSLEDMDAALNAWIAANPELLSSAGG [r19_123_JUSTAS] | 0.59 ± 0.11 kcal/mol
44 | SAENGKWVEVELPIEIWMGNDQLDNFIEEARDIARKHGFEITDIPIKYEPSPDGYRRATIPVKITVPLPSAG [r14_109_TrROS] | 1.06 ± 0.04 kcal/mol
45 | SAGGSAGGSMVYKVTVYIPESGETREFVDPGSEEEIKARVKELFPDPNVKVEITPIEASPELLSAGGSAGGS [r12_92_JUSTAS] | 2.11 ± 0.042 kcal/mol
46 | SAGGSAGGSAGGKKKKVKKKVTITIKLSAEEVAKLLKDLYPEKNIKIEENEDGSLSVTFTSAGGSAGGSAGG [r7_670_TrROS_Hall] | 2 ± 0.098 kcal/mol
47 | SAGGSAGGSAGGKKPITLTVLVTDPDGYLLQRTTTLTLDEDTNELTATTTVTRIPLEDLSAGGSAGGSAGGS [r10_1225_TrROS_Hall] | 0.684 ± 0.11 kcal/mol

Source: the supplement of paper PMC12764529
